The supplement of paper PMC9170038

System: MS2 coat protein
Assay: apparent KD of MS2 coat protein; designed switch direction (-1 OFF switch, 1 ON switch): -1; higher = weaker reporter binding
How it was run: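 The buffer was Tris-HCl pH 7.5 with KCl, MgCl2, BSA, DTT, tRNA and Tween-20. In it, SNAP-549-labelled MS2 coat protein was titrated in doubling steps from 0.7 or 1.5 nM to 3 µM over chip-bound RNA switches transcribed by stalled E. coli RNA polymerase on Illumina chips. Apparent KD is the per-design median over clusters of curve fits to normalised fluorescence.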

[1] = Eterna round: R95, input ligand: microRNA oligo, concentration not stated
[2] = Eterna round: R95, input ligand: FMN 200 uM
[3] = Eterna round: R95, input ligand: none
[4] = input ligand: microRNA oligo, concentration not stated

Sequence	apparent KD of MS2 coat protein [1]	apparent KD of MS2 coat protein [2]	apparent KD of MS2 coat protein [3]	apparent KD of MS2 coat protein [4]	apparent KD of MS2 coat protein (input ligand: FMN 200 uM)	apparent KD of MS2 coat protein (input ligand: none)
GAGUGACAUGAGGAUCACCCAUGUGAGGAUAUCGGCCGGACCUUGUUAGCUUCCACCGCGAGAAGGCACAUCGG [Exclusion 1 V29] (puzzle: Exclusion 1)	0.0203 µM	–	–	–	–	–
GUAGGGUCAGGAUAUACGGGCGGAGGGAUGUAUUGUAGUUGGUAGAAGGGACAUGAGGAUCACCCAUGUAAGAA [JR_Exclu4_Sub055] (puzzle: Exclusion 4)	0.0253 µM	–	–	–	–	–
AGUACUAUCACGAAAGUGAUAGUACAAUAAGCUUGUGGAACAUGAGGAUCACCCAUGUCCUCAUAAGCUCGUCUUAU [Mat - Sensor v3 - Turn-off var 2 - D27] (puzzle: Sensor v3, turn-off variant 2)	0.0687 µM	0.0157 µM	0.0147 µM	–	–	–
AGCUGUGGCCGAGGAUAUCUAAACCUUCAAACCGAAAUAUAAUCGGACAUGAGGAUCACCCAUGUAGAGAAGGCGGUCUCAGCA [Eli eng2 - 034] (Eterna round: R96, puzzle: Exclusion NG 2)	–	–	–	0.00991 µM	–	–
AAAAGGCAGGGAGGAUAUGCUUGCCUGGGUCGUCUUCAAACAUGAGGAUCACCCAUGUAGUCGACGCAGAAGGCCCUCAAAGCC [Mat - Exclusion NG 2 - Mod of JL - D61] (Eterna round: R96, puzzle: Exclusion NG 2)	–	–	–	0.0121 µM	0.0652 µM	0.0165 µM
GUAAACGCAGAGGAUAUAUCAGAUCAAAGCUGCAUAGAAGGCUGCACAUGAGGAUCACCCAUGUGGUCUUUAAG [Mat - Exclusion 6 - JL Mod - D4] (Eterna round: R97, puzzle: Exclusion 6)	–	–	–	–	0.128 µM	0.0184 µM
UCUAUAGGGCUGCAGGCUUACAUGAGGAUCACCCAUGUAUAGGGUUUUCUACGCGCUCGUCAUCAUACAUUAAUUCG [Eternabot (L1) Solution 31] (Eterna round: R97, puzzle: Sensor, turn-off variant 1)	–	–	–	–	0.044 µM	0.0531 µM
GCAGCAUAUGUAGGAUAUCUGCACGAUUAGUGCAGAGAAGGACAUGAGGAUCACCCAUGUAAUUAAGAUCAAUUAUUAAGCUGC [ENG1/4-A1] (Eterna round: R96, puzzle: Exclusion NG 1)	–	–	–	0.0156 µM	0.0333 µM	0.0228 µM
AAAUUAGCAAGUAGGUCCGACAUGAGGAUCACCCAUGUAAUCUGAAAUUACGCUGCAUGAAAGUGCGCUCGUCUUAG [Sensor-V1 #10] (Eterna round: R97, puzzle: Sensor, turn-off variant 1)	–	–	–	–	0.111 µM	0.168 µM
GCGCCAUCGUGAGAUGGCGUAAUUACAUGAGGAUCACCCAUGUAGGAUAUCGAUUGCUUUGCAGUCGAGAAGGGCGUGAUAAGU [JL ENG3 3.71] (Eterna round: R96, puzzle: Exclusion NG 3)	–	–	–	0.0595 µM	0.086 µM	0.0689 µM
AGAAAAGCCCAUGACCGCAAGCUUUUUGCUUGUCUUACCACAUGAGGAUCACCCAUGUGACAUGGGCUCCUUAUAAU [Atcein] (puzzle: Sensor v3, turn-off variant 2)	0.0102 µM	0.0132 µM	0.0111 µM	–	–	–
AAGUAGACAGUGAGGAUAUUGGUGGAAUGACACAUUAAGAAGGUACAUGAGGAUCACCCAUGUGGGUAAUGUCG [Brourd's EX4 #26] (Eterna round: R97, puzzle: Brourd's mod of Exclusion 4)	–	–	–	–	0.0648 µM	0.0458 µM
UUAUACGUUGAGGAUAUGCGAAUUAGUAUAGUUGCAGAAGGCGAUACAUGAGGAUCACCCAUGUUCAUGGGCAU [LRO-Ex6-05] (puzzle: Exclusion 6)	0.135 µM	–	–	–	–	–
AGCUGUGGCCGAGGAUAUACAUGAGGAUCACCCAUGUUACAUAAUUAGGCCGGGUAACCGGCUCCGUAGAAGGCGGUCUCAGCA [Eli eng2 - 004] (Eterna round: R96, puzzle: Exclusion NG 2)	–	–	–	0.0117 µM	0.0143 µM	0.0137 µM
AAAAAACAUGAGGAUCACCCAUGUCAGGAUAUCCGAAAAGAAAAAUAAAAAGAAAAAGGGAGAAGGGACAAAAA [April's ex-date #3] (puzzle: Exclusion 1)	0.0486 µM	0.0456 µM	0.0613 µM	–	–	–
AAGAAGUAAGGAUAUGGCCGGGUCCCUGGGUUUGGACCCGGCUAGAAGGUACAUGAGGAUCACCCAUGUAAGAA [Excls4-IX] (puzzle: Exclusion 4)	0.0131 µM	–	–	–	–	–
UUUAGUUCAGGAUAUGUAGAUUUUAACAUGAGGAUCACCCAUGUAGAUCCUGAAUUAACUACAGAAGGGAGCAUUU [Mod of Brourd 16 - Jieux - Exclusion 5] (Eterna round: R97, puzzle: Exclusion 5)	–	–	–	–	0.0336 µM	0.0184 µM

Sequence	apparent KD of MS2 coat protein [1]	apparent KD of MS2 coat protein [2]	apparent KD of MS2 coat protein [3]	apparent KD of MS2 coat protein [4]	apparent KD of MS2 coat protein (input ligand: FMN 200 uM)	apparent KD of MS2 coat protein (input ligand: none)
CACCGUUACUGAGGAUAUCGUACAUGAGGAUCACCCAUGUAAUAAAUGAGAAUUUCGGAUGUAUGCGAGAAGGCAGGAAUCGGC [Ostracism 36 - Jieux - Exclusion NG 2] (Eterna round: R96, puzzle: Exclusion NG 2)	–	–	–	0.0195 µM	0.0316 µM	0.0322 µM
UCGACUACAGUAGGAUAUGUAGGAUAUGUGGUUGAGGAUCACCCAACCACUUCAACGACAGAAGGACAGAAGGACUGACAUCGU [pwkr exNG2 2xFMN 1xF5.4] (Eterna round: R96, puzzle: Exclusion NG 2)	–	–	–	0.0142 µM	0.0215 µM	0.0204 µM
ACAUGAGGAUCACCCAUGUGAAAAGAAUGGCUGACACAGAGAUAGGAUAUGUGUGCAUAUCUAACACAGAAGGGUCAUGACUGG [Deportation 80 - Jieux - Exclusion NG 3] (Eterna round: R96, puzzle: Exclusion NG 3)	–	–	–	0.0342 µM	0.0416 µM	0.0401 µM
GAAAACGUAGGAUAUUAAUACUUAGACAUGAGGAUCACCCAUGUUUGGUGGGUUUAAGAAUGAGAAGGGCGAUGAA [EX5 #7] (Eterna round: R97, puzzle: Exclusion 5)	–	–	–	–	0.222 µM	0.189 µM
CUCCUACAUGAGGAUCACCCAUGUCAGGAUAUCUCAGUAGCACCUAAAGGUGCUACCCAGAGAAGGGACGUGCA [Enororce] (puzzle: Exclusion 1)	0.0111 µM	–	–	–	–	–
UAACAGCGAGGAUAUACAUGAGGAUCACCCAUGUACGGGUCCGGGUUUUCGUCCAAAAGUAGAAGGCGCAAUAA [Laongeedte] (puzzle: Exclusion 3)	0.0384 µM	0.177 µM	0.0414 µM	–	–	–
AGUACUAACUCGAUAGUGUUAGUACAAUAAGCUUGUGAAACAUGAGGAUCACCCAUGUCCUCAUAAGCUCGUCUUAU [salish99_TOv2_r3_1004] (puzzle: Sensor v3, turn-off variant 2)	0.726 µM	0.0169 µM	0.0154 µM	–	–	–
CUUUUGUGAGGAUAUCAGUAGUAAAUAAAUAAAUUUACUACUGAGAAGGCACAUGAGGAUCACCCAUGUUCCUC [salish99_ex3_r3_084] (puzzle: Exclusion 4)	0.0454 µM	–	–	–	–	–
GCAAGCUUUUUGCGUAGGAACAUGAGGAUCACCCAUGUGCAUGGAAAGAUGGGAAAGAAAGGAGAGAAAGAUGAAAG [Alacar 1] (Eterna round: R97, puzzle: Sensor, turn-off variant 1)	–	–	–	–	0.101 µM	0.0881 µM
AGUAAGCUAGGAUAUGCUUUGGGAAAGCAUUCCUUCGAUAAACUUGAGGAUCACCCAAGUAGAAGGAGCUUACC [salish99_ex2_r4_002] (Eterna round: R97, puzzle: Exclusion 2)	–	–	–	–	0.0134 µM	0.0124 µM
GGUGGACAUGAGGAUCACCCAUGUGAGGAUAUCGGCUAUCUUCUCGCUGUCGGUUGCUCGAGAAGGCACAUUGU [Exclusion 1 V94] (Eterna round: R96, puzzle: Exclusion 1)	–	–	–	0.0501 µM	0.112 µM	0.0649 µM
GCUCCUCCUGUUAGGAUAUGCUUCGGGCUUCCGCAGCAGAAGGAACAUGAGGAUCACCCAUGUCAAAUAAAAUC [Brourd's mod of Ex.4 - Mod Inxebexe (Scored 85 R3.2)] (Eterna round: R97, puzzle: Brourd's mod of Exclusion 4)	–	–	–	–	0.223 µM	0.0762 µM
GGACCAAGUCUAGGAUAUUUCAAUAGUUGUGUGAGAGAAGGAGAAUAACAUGAGGAUCACCCAUGUACCUCAAGUAGGCCGAUU [Eternabot solution 16] (Eterna round: R96, puzzle: Exclusion NG 1)	–	–	–	0.0362 µM	0.0592 µM	0.048 µM
UUUUCAUAUGAAGGAUAUACUUAACAUGAGGAUCACCCAUGUGGUGUUGUGAGUGAGUGAGUUUAGUAGAAGGUCAAGUAUUUU [JMF's solution 48] (Eterna round: R96, puzzle: Exclusion NG 2)	–	–	–	0.304 µM	0.805 µM	0.304 µM
ACAAGCUUUUUGUUCGUCUUAUAAAAUCCUAAGAGGAAAACAUGAGGAUCACCCAUGUAACAAAGACGGACUCAUGU [Sesor Array 12 - Jieux - Sensor v3, turn-off variant 2] (Eterna round: R96, puzzle: Sensor v3, turn-off variant 2)	–	–	–	0.0991 µM	0.0115 µM	–
UCAUACGGUGAGGAUAUCUCCGCUAAAGUGUGUAGAGAAGGCGCUACAUGAGGAUCACCCAUGUUUGUGGGCAG [Ex-6 Malc#11] (puzzle: Exclusion 6)	0.421 µM	–	–	–	–	–
